The target of the assay is RBD-HR/trimer (SARS-CoV-2) (UniProt P0DTC2). As to the kind of experiment: SEC. In general terms: SEC sorts molecules by how far they enter the pores of the column.

As a reminder, the stoichiometry N is the number of molecules, sites or subunits per partner or assembly. In turn, RBD-HR/trimer (from UniProt P0DTC2) gave a stoichiometry N of 3.

For the origin of these results see paper PMC11750101.
